Assay results taken from publication PMC9381590, “DDX39B drives colorectal cancer progression by promoting the stability and nuclear translocation of PKM2” (Signal Transduction and Targeted Therapy, 2022).

B1: purified STUB1 (natural protein, UniProt Q9UNE7 1-303, looked up)
chain: MKGKEEKEGGARLGAGGGSPEKSPSAQELKEQGNRLFVGRKYPEAAACYGRAITRNPLVAVYYTNRALCYLKMQQHEQALADCRRALELDGQSVKAHFFLGQCQLEMESYDEAIANLQRAYSLAKEQRLNFGDDIPSALRIAKKKRWNSIEERRIHQESELHSYLSRLIAAERERELEECQRNHEGDEDDSHVRAQQACIEAKHDKYMADMDELFSQVDEKRKKRDIPDYLCGKISFELMREPCITPSGITYDRKDIEEHLQRVGHFDPVTRSPLTQEQLIPNLAMKEVIDAFISENGWVEDY
notes: STIP1 homology and U-box-containing protein 1 (STUB1); the methods tell only of GST- and His-fused proteins from E. coli BL21 (DE3); source: recombinant, purified
B2: purified recombinant PKM2 1-219 aa protein (domain or fragment)
chain: not shown
notes: also called PKM2^1–218,219aa; source: recombinant, purified

Assays:
[1] = target: T1, purified recombinant PKM2 (UniProt P14618 1-531); test: in vitro competitive binding analysis; purified proteins; increasing amounts of DDX39B added to PKM2 (WT or 1-219 aa) and STUB1; western blotting; conditions: both partners purified
T1 construct: pyruvate kinase isoform M2 (PKM2); the methods tell only of GST- and His-fused proteins from E. coli BL21 (DE3); also called PKM2^WT; rPKM2; source: recombinant, purified
T1 sequence (P14618 whole entry, the tested form may be a part, canonical isoform): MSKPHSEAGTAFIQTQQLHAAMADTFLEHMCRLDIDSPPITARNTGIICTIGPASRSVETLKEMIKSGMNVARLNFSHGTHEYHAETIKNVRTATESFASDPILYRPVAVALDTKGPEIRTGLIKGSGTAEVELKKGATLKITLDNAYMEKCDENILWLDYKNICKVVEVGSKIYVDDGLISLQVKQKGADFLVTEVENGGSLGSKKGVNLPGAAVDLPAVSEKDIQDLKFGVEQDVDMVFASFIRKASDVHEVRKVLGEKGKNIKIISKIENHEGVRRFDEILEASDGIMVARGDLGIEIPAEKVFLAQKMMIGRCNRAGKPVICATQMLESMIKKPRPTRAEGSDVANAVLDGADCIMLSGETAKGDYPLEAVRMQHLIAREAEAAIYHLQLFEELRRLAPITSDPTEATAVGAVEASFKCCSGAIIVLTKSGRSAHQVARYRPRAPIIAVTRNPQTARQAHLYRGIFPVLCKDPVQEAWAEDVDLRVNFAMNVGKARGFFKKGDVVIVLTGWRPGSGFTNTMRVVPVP

purified STUB1 = target: B1; test: as above; conditions: both partners purified

binding result [1] | binding result (purified STUB1) | Binder
binds | – | B1
– | binds | B2
